Experimental data reported in patent US20160058881A1, “PRODRUGS WITH PROLONGED ACTION” (INDIANA UNIVERSITY RESEARCH AND TECHNOLOGY CORPORATION, priority 2013, published 2016).
Non-standard residues stand in square brackets, D forms with d. Groups on a side chain read outwards from the residue. No end group written: not given here. *: point of attachment. Docosanoyl = CCCCCCCCCCCCCCCCCCCCCC(=O)*; Phe(4-NH2) = Nc1ccc(C[C@H](N)C(=O)O)cc1; Aib = CC(C)(N)C(=O)O; Sar = CNCC(=O)O

Key:
[1] = tested on: diet induced obesity (DIO) mice; experiment: In vivo effects of daily prodrug injection in DIO mice (Example 6); design: species or system mice (strain: C57B16); conditions: s.c. daily for 5 days, 10 nmol/kg
Description: C22 acylated versions of Peptide D were also tested for their in vivo effects in diet induced obesity (DIO) mice (strain: C57B16) following daily administrations. Nine groups of eight mice (with an initial average body weight of 65 g) were subcutaneously injected daily for 5 days with vehicle only or 3 nmol/kg or 10 nmol/kg of Peptide D (parent peptide), a Peptide D with C22 acylation via the prodrug dipeptide moiety and Peptide D with a C22 acyl group linked directly to the 4-amino phenylalanine at position 10. The mice were 11 months old and had been on a high fat diet for approximately 2 months. Body weight was monitored for a week following injection and was measured on Day 0, 1, 2, 3, 4 and 7, wherein Day 0 was the day of injection (FIG. 4A, 4B).

[2] = tested on: diet induced obese (DIO) mice; experiment: In vivo effects of alternate prodrug injection schemes in DIO mice (Example 7); design: species or system mice (strain: C57B16); conditions: s.c., 40 nmol/kg once, 20 nmol/kg twice, or 10 nmol/kg daily for four days
Description: C22 acylated versions of Peptide D were also tested for their in vivo effects in diet induced obese (DIO) mice (strain: C57B16) following alternative administration schedules. Two groups of eight mice (with an initial average body weight of 65 g) were subcutaneously injected once with 40 nmol/kg of Peptide D (parent peptide without acylation and without a dipeptide prodrug moiety), or 40 nmol/kg of a Peptide D with C22 acylation via the dipetide prodrug moiety. Three groups of eight mice were subcutaneously injected twice (1 day between injections, e.g., Monday-Wednesday) with vehicle only, 20 nmol/kg of Peptide D (parent peptide), or 20 nmol/kg of a Peptide D C22 acylated prodrug. Finally, three groups of eight mice were subcutaneously injected daily for four days with vehicle only, 10 nmol/kg of Peptide D (parent peptide), or 10 nmol/kg of a Peptide D C22 acylated prodrug.

[3] = molecular target: T1, GLP-1 receptor (Homo sapiens, UniProt P43220); experiment: GLP-receptor luciferase bioassay of samples incubated in 20% human plasma (restored activity); assay type: cell-based; conditions: 37° C.
T1 sequence (P43220 24-463): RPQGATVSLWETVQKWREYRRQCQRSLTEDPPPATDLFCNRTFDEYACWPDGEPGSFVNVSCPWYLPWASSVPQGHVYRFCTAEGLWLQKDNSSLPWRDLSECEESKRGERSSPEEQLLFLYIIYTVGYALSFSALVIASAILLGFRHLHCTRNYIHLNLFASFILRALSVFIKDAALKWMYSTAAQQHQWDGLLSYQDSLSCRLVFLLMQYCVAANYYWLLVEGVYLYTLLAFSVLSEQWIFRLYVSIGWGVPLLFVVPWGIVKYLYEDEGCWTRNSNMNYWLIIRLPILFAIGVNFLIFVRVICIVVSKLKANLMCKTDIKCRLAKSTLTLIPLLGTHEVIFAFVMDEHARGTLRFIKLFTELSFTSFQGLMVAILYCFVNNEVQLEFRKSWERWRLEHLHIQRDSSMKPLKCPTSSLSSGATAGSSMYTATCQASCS
Description: To explore the possible formation of DKP and simultaneous regeneration of the parent drug, the above-mentioned peptides were incubated in 20% human plasma at 37° C. for approximately 5 days. Samples were collected at different time points (0, 1, 2, and 5 days).

[4] = molecular target: T1, GLP-1 receptor; experiment: GLP-1 agonist activity, cAMP production in an in vitro assay; assay type: cell-based; conditions: versus glucagon receptor
Description: Receptor activation can be measured by in vitro assays measuring cAMP induction in HEK293 cells over-expressing the receptor, e.g. assaying HEK293 cells co-transfected with DNA encoding the receptor and a luciferase gene linked to cAMP responsive element as described in the examples.

Q: How did the Body weight ([1]; after last injection on day 4 to day 7) turn out when “C22 attached to position 10 (via A-B prodrug): Peptide D with (d)Lysine-sarcosine dipeptide on 4-amino group of phenylalanine at position 10, C22 acyl on epsilon amino of (d)Lysine (F[Aib]EGTFTSD[Phe(4-NH2)]([Sar-dK-Docosanoyl])SIYLDKQAA[Aib]EFVNWLLAGGPSSGAPPPS; not fully specified (C-terminus))” was run?
A: continued to lose weight through day 7

Q: What about the Body weight ([1]; through day 4) of the same substance?
A: caused the most weight loss

Q: What about the “Body weight (weight loss compared to the parent peptide)” value [2] of the same substance?
A: more total and sustained weight loss

Q: What about the “Restored (activity relative to parent peptide)” value ([3]; 0 d) of the same substance?
A: Restored 36%

Q: What about the “Change of activity over the time points in plasma” value ([3]; 0 to 5 d) of the same substance?
A: Activity Restored

Q: What about the “Restored (activity relative to parent peptide)” value ([3]; 1 d) of the same substance?
A: Restored 57%

Q: What about the “Restored (activity relative to parent peptide)” value ([3]; 5 d) of the same substance?
A: Restored 87%

Q: For “SEQ ID NO: 22: glucagon analog substituting the native glutamine at position 3 with glutamic acid”, which “selectivity for the GLP-1 receptor” value [4] is on record?
A: approximately a tenfold selectivity for the GLP-1 receptor
